For one substance, stoichiometry N (ζ-protein per F-ATPase complex) results are on record in paper PMC4593670.

For the assay, the target named is F-ATPase from Paracoccus denitrificans (nine core subunits α, β, γ, δ, ε, a, b, b' and c) (Paracoccus denitrificans (strain PD1222)) (UniProt A1B8N8). In words: reverse-phase LC-MS of the subunits of the purified complex; subunits of F-ATPase I fractionated by reverse-phase chromatography, online electrospray MS; amounts estimated from peak areas of the ion traces, ζ against the δ-subunit.
Chain of UniProt A1B8N8 (A1B8N8 whole entry, looked up, stated change not applied, tested part not stated): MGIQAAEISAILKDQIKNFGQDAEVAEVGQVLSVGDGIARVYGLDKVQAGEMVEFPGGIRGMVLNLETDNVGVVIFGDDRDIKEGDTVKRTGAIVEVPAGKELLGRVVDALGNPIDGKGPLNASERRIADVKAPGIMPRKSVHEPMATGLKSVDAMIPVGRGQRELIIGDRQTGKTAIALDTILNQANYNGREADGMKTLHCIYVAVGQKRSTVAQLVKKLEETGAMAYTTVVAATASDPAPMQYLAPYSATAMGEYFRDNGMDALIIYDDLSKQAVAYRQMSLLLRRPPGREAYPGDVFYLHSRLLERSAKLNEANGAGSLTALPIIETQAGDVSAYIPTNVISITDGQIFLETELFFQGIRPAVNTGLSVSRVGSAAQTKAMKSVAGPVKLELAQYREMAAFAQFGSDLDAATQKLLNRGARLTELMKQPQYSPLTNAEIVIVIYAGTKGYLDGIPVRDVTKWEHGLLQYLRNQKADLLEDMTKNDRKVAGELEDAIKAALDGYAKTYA

As for “ζ inhibitor protein of the F-ATPase from Paracoccus denitrificans (natural protein)”, the stoichiometry N (ζ-protein per F-ATPase complex) is 1.
